± gives the standard deviation of the averaged measurements.
B1: library; a variant is named by its letters at N, in order (parent)
chain: GCUGUCACCGGUGCUUGGUACGUUAUAUUCAGCCGGUCUGAUGAGUCUNNNNNNAGACGAAACAGC

Legend:
(6R,S)-folinic acid [1] = variants of: B1; assay: FACS-Seq fitted mean relative fluorescence mCherry/BFP without ligand (log10 relative fluorescence); HEK293T overexpressing SLC46A1; higher = higher reporter protein expression; conditions: without (6R,S)-folinic acid; ligand present: no
In short: (§1)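 HEK293T libraries were made by lentiviral transduction with a ribozyme-switch mCherry reporter and an EF1α-BFP marker, enriched, and incubated with or without ligand for 48 h. Cells were sorted into 6 mCherry/BFP bins, and each bin's genomic DNA was PCR-amplified, barcoded and run on MiSeq. Fluorescence was derived by normal fitting of the bin counts. The fitted log10(mCherry/BFP) mean was scaled to five spiked-in control ribozymes.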

(6R,S)-folinic acid [2] = variants of: B1; assay: normalized RNA/DNA level without ligand (relative to sTRSVctl = 100) (log10 (% of sTRSVctl)); HEK293T overexpressing SLC46A1; higher = less ribozyme self-cleavage, higher mRNA level; conditions: without (6R,S)-folinic acid; ligand present: no
In short: (§2)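 For each 6-well well, 4 µg of library plasmid encoding mCherry-linked ribozyme switches, or eGFP-linked ones in some ligand experiments, was transfected into HEK293T. Any ligand was added 1 h before transfection, and RNA was extracted with EDTA 72 h after it, then reverse-transcribed, amplified, barcoded and sequenced. RNA level was obtained by dividing RNA reads by DNA reads, normalizing to a spiked-in non-cleaving sequence or to the top sequences, then scaling and log-transforming. The top set was 25 sequences, scaling was ×100 with log10, and ≥100 DNA reads were required.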

(6R,S)-folinic acid [3] = variants of: B1; assay: FACS-Seq fitted mean relative fluorescence mCherry/BFP with ligand (log10 relative fluorescence); HEK293T overexpressing SLC46A1; ligand concentration (+) FACS-Seq: 6 mM; higher = higher reporter protein expression; conditions: with (6R,S)-folinic acid; ligand present: yes
In short: as §1

(6R,S)-folinic acid [4] = variants of: B1; assay: normalized RNA/DNA level with ligand (relative to sTRSVctl = 100) (log10 (% of sTRSVctl)); HEK293T overexpressing SLC46A1; ligand concentration (+) RNA-Seq: 6 mM; higher = less ribozyme self-cleavage, higher mRNA level; conditions: with (6R,S)-folinic acid; ligand present: yes
In short: as §2

Variant | FACS-Seq fitted mean (log10) ((6R,S)-folinic acid [1]) | normalized RNA/DNA level without ligand (log10) ((6R,S)-folinic acid [2]) | FACS-Seq fitted mean (log10) ((6R,S)-folinic acid [3]) | normalized RNA/DNA level with ligand (log10) ((6R,S)-folinic acid [4])
UGCCGG | 0.22 ± 0.012 | 1.92 ± 0.011 | 0.707 ± 0.05 | 2.006 ± 0.018
AGCAAA | 0.455 ± 0.047 | 1.979 ± 0.004 | 0.532 ± 0.21 | 2 ± 0.028
CGGCAU | 0.32 ± 0.03 | 2.011 ± 0.0083 | 0.52 ± 0.17 | 2.019 ± 0.02
CGGUAA | 0.149 ± 0.092 | 1.954 ± 0.014 | 0.184 ± 0.083 | 1.993 ± 0.013
UGACGG | -0.24 ± 0.039 | 1.748 ± 0.0057 | 0.0392 ± 0.065 | 1.99 ± 0.044
GGAGAU | 0.0885 ± 0.2 | 1.959 ± 0.0067 | -0.253 ± 0.085 | 1.99 ± 0.049
GGAGAA | 0.29 ± 0.13 | 1.961 ± 0.013 | 0.201 ± 0.0069 | 2.01 ± 0.022
GGAGAC | 0.571 ± 0.081 | 2.0007 ± 0.00018 | 0.512 ± 0.3 | 2.009 ± 0.0055
CGCCAG | 0.509 ± 0.022 | 1.998 ± 0.013 | 0.216 ± 0.15 | 1.998 ± 0.016
GGCUUG | 0.434 ± 0.019 | 2.078 ± 0.012 | 0.292 ± 0.34 | 2.049 ± 0.018
GGGCAU | 0.273 ± 0.12 | 2.045 ± 0.01 | 0.0697 ± 0.059 | 2.054 ± 0.0062
CGAGUU | 0.1373 ± 0.00078 | 1.997 ± 0.012 | 0.394 ± 0.014 | 2 ± 0.031
CGAGUG | 0.389 ± 0.14 | 1.964 ± 0.0042 | 0.341 ± 0.17 | 2.01 ± 0.032
AGCUUG | 0.529 ± 0.0056 | 1.964 ± 0.002 | 0.349 ± 0.32 | 2.03 ± 0.036
UGGGAG | -0.0508 ± 0.0099 | 1.6 ± 0.025 | 0.331 ± 0.024 | 1.93 ± 0.078
UGGGAU | 0.3975 ± 0.0017 | 1.86 ± 0.022 | 0.547 ± 0.094 | 2 ± 0.046
GGGACU | 0.111 ± 0.0086 | 2.023 ± 0.011 | 0.0545 ± 0.19 | 2.008 ± 0.019
GGGACA | 0.123 ± 0.064 | 1.997 ± 0.016 | 0.248 ± 0.14 | 2 ± 0.063
UGACUG | 0.14 ± 0.2 | 1.857 ± 0.0074 | 0.368 ± 0.08 | 1.99 ± 0.054
AGAUCA | -0.134 ± 0.025 | 2.01 ± 0.005 | -0.625 ± 0.07 | 2 ± 0.058
AGAUUC | 0.551 ± 0.08 | 2.05 ± 0.0077 | 0.54 ± 0.24 | 2.04 ± 0.042
AGAUUA | 0.568 ± 0.048 | 2.001 ± 0.018 | 0.535 ± 0.036 | 2.01 ± 0.037
UGAGUG | 0.376 ± 0.083 | 1.652 ± 0.011 | 0.652 ± 0.081 | 1.93 ± 0.023
UGAGUA | 0.204 ± 0.015 | 1.911 ± 0.0073 | 0.422 ± 0.1 | 2 ± 0.043

Variant | FACS-Seq fitted mean (log10) ((6R,S)-folinic acid [1]) | normalized RNA/DNA level without ligand (log10) ((6R,S)-folinic acid [2]) | FACS-Seq fitted mean (log10) ((6R,S)-folinic acid [3]) | normalized RNA/DNA level with ligand (log10) ((6R,S)-folinic acid [4])
UGCGCU | 0.293 ± 0.033 | 2.043 ± 0.0054 | 0.428 ± 0.044 | 2.04 ± 0.03
CGGCUC | 0.213 ± 0.046 | 2.048 ± 0.0069 | 0.269 ± 0.16 | 2.037 ± 0.014
UGCAGG | -0.138 ± 0.052 | 1.68 ± 0.029 | -0.00907 ± 0.1 | 1.909 ± 0.017
UGCAGA | -0.262 ± 0.068 | 1.899 ± 0.008 | -0.0873 ± 0.14 | 1.995 ± 0.0057
GGGAAG | 0.485 ± 0.082 | 1.955 ± 0.015 | 0.402 ± 0.061 | 2.04 ± 0.027
UGGCCA | 0.74 ± 0.1 | 2.04 ± 0.014 | 0.432 ± 0.081 | 2.057 ± 0.014
CGCAUU | 0.241 ± 0.21 | 2.015 ± 0.0023 | 0.576 ± 0.31 | 1.99 ± 0.039
CGCAUA | 0.387 ± 0.012 | 1.98 ± 0.0046 | 0.156 ± 0.073 | 2 ± 0.059
GGGCGG | 0.0567 ± 0.099 | 2.07 ± 0.027 | 0.485 ± 0.0056 | 2.06 ± 0.045
GGACUA | 0.287 ± 0.07 | 1.989 ± 0.0053 | 0.202 ± 0.044 | 1.97 ± 0.033
CGGGUA | -0.402 ± 0.16 | 1.939 ± 0.018 | -0.606 ± 0.59 | 1.97 ± 0.054
AGAUAA | 0.0208 ± 0.12 | 1.96 ± 0.006 | 0.14 ± 0.2 | 1.981 ± 0.012
GGAUAA | 0.686 ± 0.051 | 1.9974 ± 0.00055 | 0.655 ± 0.074 | 2.03 ± 0.026
CGAGGG | 0.504 ± 0.034 | 1.844 ± 0.0078 | 0.672 ± 0.22 | 1.968 ± 0.011
AGGAGA | 0.26 ± 0.062 | 1.931 ± 0.007 | 0.172 ± 0.078 | 2.018 ± 0.017
AGGAGG | 0.585 ± 0.15 | 1.922 ± 0.0095 | 0.614 ± 0.2 | 2.05 ± 0.03
UGAUUG | 0.168 ± 0.056 | 1.768 ± 0.0099 | 0.541 ± 0.042 | 1.96 ± 0.025
UGAUUA | -0.918 ± 0.18 | 1.951 ± 0.0029 | -0.48 ± 0.39 | 2.01 ± 0.037
UGCAUG | 0.298 ± 0.025 | 1.734 ± 0.0064 | 0.712 ± 0.11 | 1.97 ± 0.026
UGCAUU | 0.0991 ± 0.29 | 1.987 ± 0.01 | -0.057 ± 0.47 | 2.01 ± 0.043
UGGAAG | 0.369 ± 0.058 | 1.653 ± 0.0055 | 0.695 ± 0.017 | 1.96 ± 0.039
GGGGCC | -0.232 ± 0.1 | 2.05 ± 0.023 | -0.6 ± 0.34 | 2.05 ± 0.015
UGGGUG | -0.154 ± 0.034 | 1.687 ± 0.0083 | 0.261 ± 0.016 | 1.95 ± 0.057
AGCGCA | 0.49 ± 0.034 | 2.01 ± 0.021 | 0.548 ± 0.31 | 2.04 ± 0.029

Variant | FACS-Seq fitted mean (log10) ((6R,S)-folinic acid [1]) | normalized RNA/DNA level without ligand (log10) ((6R,S)-folinic acid [2]) | FACS-Seq fitted mean (log10) ((6R,S)-folinic acid [3]) | normalized RNA/DNA level with ligand (log10) ((6R,S)-folinic acid [4])
AGCCGU | 0.507 ± 0.044 | 2.018 ± 0.017 | 0.3424 ± 0.0012 | 2.0145 ± 0.00041
CGAGAA | 0.311 ± 0.059 | 1.9567 ± 0.0017 | 0.426 ± 0.19 | 2.01 ± 0.039
GGCCAA | 0.479 ± 0.052 | 2.045 ± 0.013 | 0.409 ± 0.049 | 2.024 ± 0.0077
GGCCAU | 0.522 ± 0.091 | 2.05 ± 0.023 | 0.337 ± 0.19 | 2.01 ± 0.063
AGCAGA | 0.0194 ± 0.039 | 1.98 ± 0.0025 | -0.229 ± 0.27 | 2.02 ± 0.029
UGCUUG | 0.46 ± 0.098 | 1.76 ± 0.018 | 0.655 ± 0.047 | 1.96 ± 0.034
UGGACG | 0.175 ± 0.0034 | 1.778 ± 0.013 | 0.472 ± 0.059 | 1.97 ± 0.029
UGGACA | 0.24 ± 0.025 | 1.95 ± 0.0054 | 0.186 ± 0.017 | 2.019 ± 0.019
UGGACC | 0.168 ± 0.11 | 2.01 ± 0.033 | 0.0739 ± 0.15 | 1.97 ± 0.033
AGGAUA | 0.115 ± 0.081 | 1.945 ± 0.0066 | 0.116 ± 0.17 | 2 ± 0.049
UGCUGG | 0.145 ± 0.014 | 1.85 ± 0.025 | 0.325 ± 0.18 | 2.02 ± 0.065
UGCUGA | 0.285 ± 0.21 | 2.02 ± 0.024 | 0.321 ± 0.12 | 2.05 ± 0.043
UGGAUG | 0.178 ± 0.037 | 1.68 ± 0.017 | 0.784 ± 0.046 | 1.958 ± 0.015
UGGAUU | 0.509 ± 0.13 | 1.9762 ± 0.00085 | 0.582 ± 0.21 | 2.03 ± 0.023
UGCCAC | 0.366 ± 0.066 | 1.985 ± 0.017 | 0.438 ± 0.13 | 1.977 ± 0.013
UGCCAA | 0.194 ± 0.021 | 1.956 ± 0.015 | 0.168 ± 0.2 | 2.01 ± 0.0051
CGCUGC | 0.0944 ± 0.13 | 2.091 ± 0.012 | -0.0623 ± 0.071 | 2.0496 ± 0.0017
GGGUAC | 0.536 ± 0.17 | 1.952 ± 0.0069 | 0.245 ± 0.036 | 1.99 ± 0.073
GGGUAA | 0.299 ± 0.036 | 1.997 ± 0.011 | 0.348 ± 0.28 | 2 ± 0.026
GGGUAG | 0.0738 ± 0.081 | 1.979 ± 0.0061 | 0.00328 ± 0.082 | 2.013 ± 0.015
GGAGUA | 0.117 ± 0.042 | 1.9805 ± 0.0005 | 0.0493 ± 0.22 | 2.03 ± 0.029
AGCGGU | 0.638 ± 0.18 | 1.952 ± 0.013 | 0.522 ± 0.022 | 2 ± 0.043
GGCAUA | 0.173 ± 0.12 | 2.032 ± 0.012 | 0.286 ± 0.1 | 2.01 ± 0.027
UGGCAG | 0.237 ± 0.02 | 1.76 ± 0.059 | 0.61 ± 0.17 | 1.955 ± 0.013
